{"source": "paper PMC5012548", "binders": {"B1": {"name": "apMNK3F (ssDNA)", "DNA": "GCGGATGAAGACTGGTGTACACGCCACCTGCGAAATCCGCCCACCCCCGCCCTAAATACGAGCAAC"}, "B2": {"name": "apMNK2F (ssDNA)", "DNA": "GCGGATGAAGACTGGTGTGGGGTGGGCGGGCGGGGGTGGGGGTGGTATGGCGCGTTGGCCCTAAATACGAGCAAC"}, "B3": {"name": "apMNK3R (ssDNA)", "DNA": "GTTGCTCGTATTTAGGGCGGGGGTGGGCGGATTTCGCAGGTGGCGTGTACACCAGTCTTCATCCGC"}, "B4": {"name": "apMNK4F (ssDNA)", "DNA": "GCGGATGAAGACTGGTGTACAACGGGCAGCCAGGTCTTCGTCGTGTGTGCCCTAAATACGAGCAAC"}, "B5": {"name": "apMNK4R (ssDNA)", "DNA": "GTTGCTCGTATTTAGGGCACACACGACGAAGACCTGGCTGCCCGTTGTACACCAGTCTTCATCCGC"}, "B6": {"name": "apMNK1F (ssDNA)", "DNA": "GCGGATGAAGACTGGTGTACACGCCGAACCCATTGTTCCAGGCGACATGCCCTAAATACGAGCAAC"}}, "key": {"His-MNK1b (rMNK1b) [1]": {"molecular_target": "T1, His-MNK1b (rMNK1b) (UniProt Q9BUB5-3 1-347)", "assay": "ELONA"}, "GST-MNK1b": {"molecular_target": "GST-MNK1b (human, UniProt Q9BUB5-3 1-347)", "assay": "ELONA"}, "His-MNK1b (rMNK1b) [2]": {"molecular_target": "T1, His-MNK1b (rMNK1b)", "assay": "Ni-NTA pull-down with qPCR"}}, "data": [{"binder": "B1", "values": [{"measurement": "binding result", "setting": "His-MNK1b (rMNK1b) [1]", "result": "binds"}]}, {"binder": "B2", "values": [{"measurement": "Kd", "setting": "GST-MNK1b", "result": "1.79 ± 0.48", "unit": "nM"}]}, {"binder": "B3", "values": [{"measurement": "Kd", "setting": "GST-MNK1b", "result": "6.36 ± 1.72", "unit": "nM"}]}, {"binder": "B4", "values": [{"measurement": "binding result", "setting": "His-MNK1b (rMNK1b) [1]", "result": "binds"}]}, {"binder": "B5", "values": [{"measurement": "binding result", "setting": "His-MNK1b (rMNK1b) [2]", "result": "binds"}]}, {"binder": "B6", "values": [{"measurement": "binding result", "setting": "His-MNK1b (rMNK1b) [2]", "result": "binds"}]}]}
